Molecular target: HLA-A2 (human)
Assay: HLA-A2 stabilization assay

HLA-A2 stabilizing ability relative to E39: 0.5 fold of E39
Binder: EIWTFSYKV [J65, variant of FBP epitope E39 (H5→F, Y7→T)]
